# Assay results as given in patent US20060240510A1, “Method for designing peptides” (CTT Cancer Targeting Technologies OY, priority 2002, published 2006).
# Read-outs that look alike come from different tables or passages of the source. Where a SMILES comes first, the peptide text is derived from it. Bridges are numbered along the chain shown (N, C = ends). Where no end group is shown, it is not given here.
# What was measured:
# [1] = Peptide stability in human serum; assay type: in vitro ADME; conditions: undiluted human serum, 37° C., anti-CTT antibody dot blot
# Procedure: (§1) FIG. 3A and 3B. Activity and stability of the tryptophan analogue containing CTT peptides. (A) Inhibition of MMP-2 using β-casein (21 IcDa) as substrate. The peptides (100 μM) were incubated with MMP-2 and β-casein (0.1 mg/ml) for 2 h and samples run on a 15% SDS-PAGE gel. (B) iCTT, 5F-CTT or a negative control peptide CERGGLETSC at a 150 μM concentration was incubated in undiluted human serum for the indicated time periods at 37° C. Samples were withdrawn, stored frozen and blotted on a nitrocellulose membrane. The level of CTT was quantitated using polyclonal anti-CTT antibody. The blots were scanned and the results shown are means ±SD from triplicate measurements. The results were similar in two other experiments.
# Spectrometry and fluorometry. The absorbance spectrum for each peptide in the 200-375 nm range was measured in 20 mM Tris-HCl (pH 7.4)/50 mM NaCl/0.1 mM EDTA with Genesys 5 spectrophotometer (Thermo Spectronic, Rochester, N.Y.). The fluorescence spectra of the CTT phage cultured in the presence of tryptophan, 5FW or 6FW were measured from heat-denatured phages (2×10^9/ml) in 10 mM Tris-HCl (pH 7.5)/140 mM NaCl/1% SDS. The fluorescence emission spectra (average of three scans) at 300-500 nm were recorded with MOS-250 spectrofluorometer. The peptides were excited at 295 nm (bandwidth 5 nm) and the emission spectra recorded in the 300-500 nm range. Peptide stability in human serum. […]
# [2] = Peptide stability in cell culture medium; assay type: in vitro ADME; conditions: cell culture medium with 10% heat-inactivated fetal calf serum
# Procedure: The gelatinase inhibitory activities of the modified CTT peptides were tested in the β-casein degradation assay (FIG. 3A) and the gelatin degradation assay (data not shown). […] To determine the peptide levels, we used anti-CTT antibody that also recognized the 5F-Trp containing peptide. […] We could not determine the half-lives of 5OH-Trp and 6F-Trp containing peptides as the anti-CTT antibody recognized these peptides only weakly in the presence of serum.
# [3] = molecular target: T1, MMP-2 (Homo sapiens, UniProt P08253); experiment: Gelatin degradation assay (biotinylated gelatin), MMP-2; assay type: biochemical
# T1 construct: purchased Roche
# T1 sequence (P08253 110-660): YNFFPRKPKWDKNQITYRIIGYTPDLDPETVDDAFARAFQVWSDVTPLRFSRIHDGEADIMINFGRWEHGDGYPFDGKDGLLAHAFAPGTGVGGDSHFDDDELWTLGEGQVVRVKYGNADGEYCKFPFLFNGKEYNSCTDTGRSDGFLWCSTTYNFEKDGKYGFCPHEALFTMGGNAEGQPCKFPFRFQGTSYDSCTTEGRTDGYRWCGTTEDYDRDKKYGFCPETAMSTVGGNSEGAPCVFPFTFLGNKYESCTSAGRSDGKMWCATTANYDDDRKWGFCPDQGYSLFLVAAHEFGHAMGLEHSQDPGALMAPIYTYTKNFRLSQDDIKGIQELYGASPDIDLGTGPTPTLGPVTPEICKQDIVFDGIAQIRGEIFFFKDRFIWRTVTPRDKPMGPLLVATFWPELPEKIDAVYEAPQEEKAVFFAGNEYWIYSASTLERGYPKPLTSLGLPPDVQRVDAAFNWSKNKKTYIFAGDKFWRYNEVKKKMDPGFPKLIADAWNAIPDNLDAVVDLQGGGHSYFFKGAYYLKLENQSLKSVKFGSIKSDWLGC
# Procedure: (§2) FIG. 1A and 1B. Inhibition of NWP-2 and MMP-9 by synthetic or intein-produced peptides. (A) MMP-9 was treated with CTT, iCTT, or STT at the peptide concentrations indicated. MMP-9 activity was determined using biotinylated gelatin. (13) The activity of the alanine mutant peptides (see Table 1) was compared to that of CTT, which inhibited MMP-2 by 100% in the gelatin degradation assay. In all assays the peptides were preincubated with the enzyme for 30 min before the substrate was added.
# (§3) Gelatinase inhibition assays. Gelatiases proMMP-2 and proMMP-9 (Roche) were activated with p-aminophenylmercuric acetate or trypsin, respectively, and then incubated in the presence or absence of each peptide to be tested for 30 min. The gelatinase inhibitory activity was determined using the following three assays: (i) The degradation of biotinylated gelatin was examined using a gelatinase activity kit according to the manufacturer's instructions. (Roche). (ii) The degradation of a MMP-2 specific fluorescent peptide substrate MCA-Pro-Leu-Ala-Nva-Dpa-Ala-Arg-NH2 (Calbiochem) (2.5 μM final concentration) was followed using MOS-250 spectrofluorometer (Bio-Logic SA, Claix, France) with 330 nm excitation and 390 nm emission. (iii) The degradation of β-casein was studied by incubating activated MMP-2 with 0.1 mg/ml concentration of β-casein for 2 h at 37° C., after which the samples were analyzed on a 15% SDS-PAGE gel.
# [4] = Solubility in water / PBS
# Procedure: The oligonucleotide was made double-stranded using PCR. The PCR product was digested with PstI and SapI and cloned to TWIN2 intein vector (New England Biolabs), digested also with PstI and SapI. This DNA construct was electroporated into MC1061 competent cells. […] The plasmid vectors were extracted from the pool of at least 216 independent clones of MC1061. The plasmids were then electroporated to ER2566 cells enabling the production of inteins. The cells harboring the plasmids were plated on LB plates containing ampicillin. 10 independent clones were pooled to one single pool. These 10 clones in one pool were cultured and the peptides were expressed and purified with chitin affinity column and reverse-phase C18 column. Each pool of peptides was tested for activity. The solubility in PBS was also tested. […] The plasmid coding for this peptide was sequenced and the peptide was synthesized with chemical synthesis.
# [5] = molecular target: T2, gelatinase A (MMP-2) (Homo sapiens, UniProt P08253); experiment: Inhibition of gelatinase A by hydrophilic CTT library peptides; assay type: biochemical; conditions: FIG. 5
# T2 construct: purchased Roche
# T2 sequence (P08253 110-660): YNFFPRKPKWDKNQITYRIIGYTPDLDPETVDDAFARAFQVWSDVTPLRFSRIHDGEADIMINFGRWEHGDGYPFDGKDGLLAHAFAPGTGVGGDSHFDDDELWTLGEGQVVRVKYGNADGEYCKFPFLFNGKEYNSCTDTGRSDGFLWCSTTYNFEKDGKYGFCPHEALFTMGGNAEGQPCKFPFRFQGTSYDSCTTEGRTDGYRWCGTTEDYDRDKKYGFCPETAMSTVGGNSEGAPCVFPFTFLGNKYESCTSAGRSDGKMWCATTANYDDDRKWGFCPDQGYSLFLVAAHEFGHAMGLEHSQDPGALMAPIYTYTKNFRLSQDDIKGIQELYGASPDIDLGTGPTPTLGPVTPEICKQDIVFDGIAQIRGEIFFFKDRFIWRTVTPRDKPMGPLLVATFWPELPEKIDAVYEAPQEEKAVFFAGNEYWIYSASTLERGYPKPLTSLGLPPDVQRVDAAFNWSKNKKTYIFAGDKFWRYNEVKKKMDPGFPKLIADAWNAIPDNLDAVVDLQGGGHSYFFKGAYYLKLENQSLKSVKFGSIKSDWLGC
# From the text: FIG. 5. Inhibition of gelatiaase A (MMP-2) with CTT-peptide, with pool 1 and pool 2, both containing 10 different peptide derivates of CTT. The library contains 216 different combinations of CTT peptide derivates. Clone 4 from pool 1 and clone 7 from pool 2 were purified and tested also for their inhibition activity against gelatinase A.
# as §3
# The oligonucleotide was made double-stranded using PCR. […] This DNA construct was electroporated into MC1061 competent cells. […]
# [6] = molecular target: T3, MMP-9 (Homo sapiens, UniProt P14780); experiment: Gelatin degradation assay (biotinylated gelatin), MMP-9; assay type: biochemical
# T3 construct: purchased Roche
# T3 sequence (P14780 107-707 limits assumed): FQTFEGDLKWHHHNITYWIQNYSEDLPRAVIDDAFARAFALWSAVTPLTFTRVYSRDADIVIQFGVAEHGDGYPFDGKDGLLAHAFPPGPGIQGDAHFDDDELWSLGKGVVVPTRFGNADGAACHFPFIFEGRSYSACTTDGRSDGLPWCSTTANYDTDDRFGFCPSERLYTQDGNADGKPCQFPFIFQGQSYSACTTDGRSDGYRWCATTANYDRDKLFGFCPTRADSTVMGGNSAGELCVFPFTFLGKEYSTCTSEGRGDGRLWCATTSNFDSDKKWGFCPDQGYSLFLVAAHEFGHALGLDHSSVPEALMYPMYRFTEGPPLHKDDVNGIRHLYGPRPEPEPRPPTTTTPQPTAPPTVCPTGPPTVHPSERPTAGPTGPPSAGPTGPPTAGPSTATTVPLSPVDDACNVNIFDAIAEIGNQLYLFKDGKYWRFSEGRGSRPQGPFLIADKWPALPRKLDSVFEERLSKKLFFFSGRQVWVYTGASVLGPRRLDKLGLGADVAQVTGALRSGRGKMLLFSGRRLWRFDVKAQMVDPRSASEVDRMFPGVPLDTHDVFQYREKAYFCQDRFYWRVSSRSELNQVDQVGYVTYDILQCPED
# Procedure: as §2
# as §3, with “(ii) The degradation of a MMP-2 specific fluorescent peptide substrate MCA-Pro-Leu-Ala-Nva-Dpa-Ala-Arg-NH2 (Calbiochem) (2.5 μM final concentration) was followed using MOS-250 spectrofluorometer (Bio-Logic SA, Claix, France) with 330 nm excitation and 390 nm emission.” left out
# [7] = molecular target: T1, MMP-2; experiment: β-casein degradation assay; assay type: biochemical; conditions: peptide 100 μM; β-casein 0.1 mg/ml, 2 h
# Procedure: as §1
# as §3, with “(ii) The degradation of a MMP-2 specific fluorescent peptide substrate MCA-Pro-Leu-Ala-Nva-Dpa-Ala-Arg-NH2 (Calbiochem) (2.5 μM final concentration) was followed using MOS-250 spectrofluorometer (Bio-Logic SA, Claix, France) with 330 nm excitation and 390 nm emission.” left out
# [8] = molecular target: MMP-9, activated (UniProt P14780 20-707, limits assumed); experiment: cell-based or functional assay
# MMP-9, activated, sequence (P14780 20-707 limits assumed): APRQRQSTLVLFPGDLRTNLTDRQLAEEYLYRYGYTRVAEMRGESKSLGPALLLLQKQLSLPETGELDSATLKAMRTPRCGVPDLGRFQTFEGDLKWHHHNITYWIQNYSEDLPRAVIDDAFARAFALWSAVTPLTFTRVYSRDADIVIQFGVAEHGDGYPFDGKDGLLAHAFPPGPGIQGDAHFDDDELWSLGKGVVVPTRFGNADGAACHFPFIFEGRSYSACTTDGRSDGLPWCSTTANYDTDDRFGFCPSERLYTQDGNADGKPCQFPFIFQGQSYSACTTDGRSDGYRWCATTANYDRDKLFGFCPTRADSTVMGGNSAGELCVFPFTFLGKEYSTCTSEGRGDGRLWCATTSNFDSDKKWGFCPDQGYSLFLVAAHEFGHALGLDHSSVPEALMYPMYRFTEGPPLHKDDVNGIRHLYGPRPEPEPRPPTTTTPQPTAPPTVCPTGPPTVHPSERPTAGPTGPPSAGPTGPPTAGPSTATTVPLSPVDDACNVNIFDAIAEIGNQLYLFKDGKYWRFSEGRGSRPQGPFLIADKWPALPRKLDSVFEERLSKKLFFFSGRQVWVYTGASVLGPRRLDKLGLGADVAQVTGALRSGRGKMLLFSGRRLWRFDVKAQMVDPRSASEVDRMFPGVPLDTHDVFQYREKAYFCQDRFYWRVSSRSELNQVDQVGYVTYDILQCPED
# [9] = molecular target: T4, MMP-2 (gelatinase A), activated (UniProt P08253 30-660, limits assumed); experiment: cell-based or functional assay
# T4 sequence (looked up): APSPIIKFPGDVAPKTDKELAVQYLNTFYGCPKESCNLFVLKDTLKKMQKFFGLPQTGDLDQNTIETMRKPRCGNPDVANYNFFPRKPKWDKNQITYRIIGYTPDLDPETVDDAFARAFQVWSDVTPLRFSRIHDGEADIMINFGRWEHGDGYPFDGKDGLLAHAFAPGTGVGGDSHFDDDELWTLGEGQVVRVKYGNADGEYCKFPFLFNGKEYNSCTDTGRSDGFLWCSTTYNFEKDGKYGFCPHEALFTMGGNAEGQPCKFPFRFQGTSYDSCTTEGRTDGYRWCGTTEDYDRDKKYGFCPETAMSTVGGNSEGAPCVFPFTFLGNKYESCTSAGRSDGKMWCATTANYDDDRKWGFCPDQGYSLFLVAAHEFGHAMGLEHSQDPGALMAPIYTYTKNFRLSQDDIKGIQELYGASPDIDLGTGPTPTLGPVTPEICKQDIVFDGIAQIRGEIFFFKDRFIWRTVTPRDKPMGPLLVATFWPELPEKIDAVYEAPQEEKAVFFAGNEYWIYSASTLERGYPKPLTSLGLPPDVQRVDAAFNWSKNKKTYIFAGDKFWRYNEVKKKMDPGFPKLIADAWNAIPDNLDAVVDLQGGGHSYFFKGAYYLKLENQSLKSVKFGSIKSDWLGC
molecule,measurement,setting,value
"CC(C)C[C@@H]1NC(=O)[C@H]([C@@H](C)O)NC(=O)[C@H](Cc2ccccc2)NC(=O)CNC(=O)[C@H](Cc2c[nH]c3ccc(F)cc23)NC(=O)[C@H](Cc2c[nH]cn2)NC(=O)[C@H]([C@@H](C)O)NC(=O)[C@H]([C@@H](C)O)NC(=O)[C@@H](N)CSSC[C@@H](C(=O)O)NC1=O [5F-Trp containing peptide, CTTH(5FW)GFTLC] (HELM PEPTIDE1{C.T.T.H.[O=C([C@H](Cc1c[nH]c2ccc(F)cc12)N[*:1])[*:2]].G.F.T.L.C}$PEPTIDE1,PEPTIDE1,1:R3-10:R3$$$V2.0; N-terminus and C-terminus assumed)",half-life at 150 μM,[1],3 h
same,stability compared with CTT,[2],No difference
"CTTAWGFTLC (disulfide 1-10 (inferred)) [H→A, Ala-substitution of the CTT-peptide]",% of the activity in comparison to the wild type peptide,"[3]; FIG. 1B, CTT = 100% inhibition",about 80%
"GRENYHGCTTRWGFTLC [tyrosine-containing CTT-peptide with additional hydrophilic amino acids, from the intein library]",solubility,[4]; water or PBS,more soluble into water or PBS than the original peptide
same,gelatinase A inhibitory activity,[5],active
"CC(C)C[C@@H]1NC(=O)[C@H]([C@@H](C)O)NC(=O)[C@H](Cc2ccccc2)NC(=O)CNC(=O)[C@H](Cc2c[nH]c3ccccc23)NC(=O)[C@H](Cc2c[nH]cn2)NC(=O)[C@H]([C@@H](C)O)NC(=O)[C@H]([C@@H](C)O)NC(=O)[C@@H](N)CSSC[C@@H](C(=O)O)NC1=O [CTT, CTTHWGFTLC] (HELM PEPTIDE1{C.T.T.H.W.G.F.T.L.C}$PEPTIDE1,PEPTIDE1,1:R3-10:R3$$$V2.0; bridges inferred)",solubility,[4],water-soluble
same,IC50,"[6]; 30 min preincubation, read-out: IC50, MMP-9 inhibition",20 µM
same,IC50,"[3]; 30 min preincubation, read-out: IC50, MMP-2 inhibition",20 µM
same,inhibition of MMP-2,[3]; FIG. 1B,100%
"CC(C)C[C@@H]1NC(=O)[C@H]([C@@H](C)O)NC(=O)[C@H](Cc2ccccc2)NC(=O)CNC(=O)[C@H](Cc2c[nH]c3ccccc23)NC(=O)[C@H](Cc2c[nH]cn2)NC(=O)[C@H]([C@@H](C)O)NC(=O)[C@H]([C@@H](C)O)NC(=O)[C@@H](N)CSSC[C@@H](C(=O)O)NC1=O [iCTT, CTTHWGFTLC] (HELM PEPTIDE1{C.T.T.H.W.G.F.T.L.C}$PEPTIDE1,PEPTIDE1,1:R3-10:R3$$$V2.0; N-terminus and C-terminus assumed)",inhibition of casein degradation by MMP-2,[7],nearly complete inhibition
same,half-life at 150 μM,[1],0.5 h
STTHWGFTLS [non-cyclic synthetic control peptide],gelatinase inhibitory activity relative to iCTT,[6]; FIG. 1A,several fold less active than iCTT
CTTHWGFTLC (disulfide 1-10 (inferred)) [iCTT: recombinant CTTHWGFTLC peptide],"IC50, gelatin degradation assay",[8],20 µM
same,"IC50, gelatin degradation assay",[9],20 µM
CTTHAGFTLC (disulfide 1-10 (inferred)) [W → A alanine mutant of CTT],"activity in comparison to the wild type peptide, gelatin degradation assay",[9],17 % of the activity of the wild type peptide
CTTHWAFTLC (disulfide 1-10 (inferred)) [G → A alanine mutant of CTT],"activity in comparison to the wild type peptide, gelatin degradation assay",[9],53 % of the activity of the wild type peptide
CTTHWGATLC (disulfide 1-10 (inferred)) [F → A alanine mutant of CTT],"activity in comparison to the wild type peptide, gelatin degradation assay",[9],36 % of the activity of the wild type peptide
CTTHWGFTLC (disulfide 1-10 (inferred)) [CTT: CTTHWGFTLC peptide (chemically synthesized)],"IC50, gelatin degradation assay",[8],20 µM
same,"IC50, gelatin degradation assay",[9],20 µM
